{"source": "patent US20220057415A1", "about": "“METHOD FOR DETECTING ALLERGIC DISEASES” (The University of Tokyo, priority 2018, published 2022)", "molecules": {"B1": {"name": "OVA: ovalbumin (manufactured by Sigma), antigen used for sensitization and stimulation of the allergy models (protein, UniProt P01012 2-386, looked up)", "Ovalbumin": "GSIGAASMEFCFDVFKELKVHHANENIFYCPIAIMSALAMVYLGAKDSTRTQINKVVRFDKLPGFGDSIEAQCGTSVNVHSSLRDILNQITKPNDVYSFSLASRLYAEERYPILPEYLQCVKELYRGGLEPINFQTAADQARELINSWVESQTNGIIRNVLQPSSVDSQTAMVLVNAIVFKGLWEKAFKDEDTQAMPFRVTEQESKPVQMMYQIGLFRVASMASEKMKILELPFASGTMSMLVLLPDEVSGLEQLESIINFEKLTEWTSSNVMEERKIKVYLPRMKMEEKYNLTSVLMAMGITDVFSSSANLSGISSAESLKISQAVHAAHAEINEAGREVVGSAEAGVDAASVSEEFRADHPFLFCIKHIATNAVLFFGRCVSP"}}, "key": {"[1]": {"test_system": "BALB/C mice", "experiment": "Measurement of nasal cavity volume by computed tomography", "format": "in vivo", "description": "To 23 BALB/C mice (female, 5 weeks old) (CLEA Japan, Inc., the same applies hereinafter), 50 μg of ovalbumin (manufactured by Sigma, sometimes abbreviated as “OVA” herein) dissolved and diluted with physiological saline (manufactured by Otsuka Pharmaceutical Co., Ltd.) and 1 mg of aluminum potassium sulfate (manufactured by Sigma-Aldrich Co. LLC.) were intraperitoneally administered simultaneously, and, after two weeks, 50 μg of OVA was intraperitoneally administered again for sensitization. […]\nThe nasal cavity volume of the AR model mice prepared in Example 1 was measured by computed tomography before the administration of OVA (6 mice), 24 hours after the fifth administration of OVA (6 mice), and 24 hours after the tenth administration of OVA (6 mice). As a control, the nasal cavity volume of the solvent-administered group prepared in Example 1 was measured in the same manner as above before the administration of the solvent (6 mice), 24 hours after the fifth administration of the solvent (6 mice), and 24 hours after the tenth administration of the solvent (6 mice). […] From the captured image, regions having a CT value of −900 to −300 HU (Hounsfield unit) were decided as the nasal cavities, and their volume was measured."}, "[2]": {"test_system": "ovalbumin-specific IgE in serum", "experiment": "Ovalbumin-specific IgE level in serum (ELISA)", "format": "in vivo, BALB/C mice", "conditions": "OVA-sensitized mice (two i.p. sensitizations, not stimulated with OVA); not detected in unsensitized group; mean±SD", "description": "(§1) To 23 BALB/C mice (female, 5 weeks old) (CLEA Japan, Inc., the same applies hereinafter), 50 μg of ovalbumin (manufactured by Sigma, sometimes abbreviated as “OVA” herein) dissolved and diluted with physiological saline (manufactured by Otsuka Pharmaceutical Co., Ltd.) and 1 mg of aluminum potassium sulfate (manufactured by Sigma-Aldrich Co. LLC.) were intraperitoneally administered simultaneously, and, after two weeks, 50 μg of OVA was intraperitoneally administered again for sensitization. Two weeks after the second sensitization, OVA (400 μg/10 μL) was transnasally administered once daily for 5 days (5 times, in total) or 10 days (10 times, in total) for stimulation, thereby preparing allergic rhinitis (sometimes abbreviated as “AR” herein) model mice. […]\nAntigen sensitization is known to increase the antigen-specific IgE value in serum. To confirm the ovalbumin sensitization of the allergic rhinitis model mice prepared in Example 1 (1), the ovalbumin-specific IgE level in serum was measured. […] The freeze-preserved serum was diluted 25 times, and then the IgE level was measured using Anti-Ovalbumin IgE (mouse) ELISA Kit (manufactured by Cayman Chemical Company) according to the instructions attached to the kit."}, "[3]": {"test_system": "BALB/C mice", "experiment": "Histopathological count of immunocytes infiltrated into nasal turbinates", "format": "in vivo", "description": "Specifically, the maxilla was excised from the mice and immediately immersed in 4% paraformaldehyde at 4° C. for 5 days. Then, it was immersed in EDTA every day and decalcified at 4° C. for 10 days. Next, the bone covering the orbit was excised with a razor, dehydrated and cleared, and then embedded in paraffin to prepare continuous section specimens having a width of 4 μm. Hematoxylin-eosin staining (HE staining), chloroacetate-esterase staining (CAE staining), toluidine blue staining (TB staining) or May-Grünwald Giemsa staining (MG staining) was performed according to a conventional method for encapsulation. Specific staining procedures are as will be described below. The stained nasal cavity tissue was observed under an optical microscope (ACT-10, manufactured by Nikon Corporation), and imaged using a digital microscope camera (OPTIPHOT-2, manufactured by Nikon Corporation). The number of immunocytes (connective tissue type mast cells, mucosal type mast cells, eosinophils and neutrophils) in the nasal turbinates (sites where inflammatory cells infiltrate when rhinitis occurs and where many capillaries gather) was counted within 16 to 24 randomly selected areas (magnification: ×400) per section. CAE staining is a staining method in which mast cell-specific esterase is stained red using naphthol AS-D chloroacetate as a substrate. The continuous section specimens prepared in the above item (1) were deparaffinized and used for staining. A 4% sodium nitrite solution and a new fuchsin solution were mixed at a ratio of 1:1, and then this solution and a naphthol solution were mixed at a ratio of 1:9. This solution and phosphate buffer (0.2M NaH2PO4, 0.2M Na2HPO4, pH 7.6) were mixed at a ratio of 1:20, and the sections were immersed for 10 minutes. The sections were washed with distilled water and then counterstained with a hematoxylin solution. The total number of the mast cells (connective tissue type mast cells and mucosal type mast cells) present in the connective tissue and mucosal tissue within 1 mm^2 was counted to calculate the mean value and standard deviation. TB staining stains acidic mucous polysaccharides. Acidic mucous polysaccharides are present in the connective tissue type mast cells and absent in the mucosal type mast cells. The continuous section specimens prepared in the above item (1) were deparaffinized and then immersed in a 0.05% toluidine blue solution (pH: 4.1) for 10 minutes. Then, they were decolorized with a 90% alcohol solution and then encapsulated. CAE staining stains both the connective tissue type mast cells and the mucosal type mast cells, whereas TB staining stains only the connective tissue type mast cells. CAE staining and TB staining were performed on different sections, and cells positive for CAE staining and positive for TB staining were decided as connective tissue type mast cells. Also, cells positive for CAE staining and negative for TB staining were decided as mucosal type mast cells. The total number of the connective tissue mast cells or mucosal type mast cells present in the connective tissue and mucosal tissue within 1 mm^2 was counted to calculate the mean value and standard deviation. May-Grünwald Giemsa staining stains eosinophil-specific eosinophilic granules red. The continuous section specimens prepared in the above item (1) were deparaffinized and then immersed in a May-Grünwald staining solution for 6 minutes. Then, the sections were washed with 1/15 M-phosphate buffer (×10) (0.2M NaH2PO4, 0.2M Na2HPO4, pH 6.4 to 6.8). Thereafter, the sections were immersed for 3 minutes in a solution obtained by mixing a Giemsa staining solution and distilled water at a ratio of 1:20. HE staining and MG staining were performed on different sections, and cells confirmed to have a multilobed nucleus by HE staining and positive for MG staining were decided as eosinophils. Also, cells have a multilobed nucleus by HE staining and negative for MG staining were decided as neutrophils. […]"}, "[4]": {"test_system": "BALB/C mice", "experiment": "Evaluation of sneezing symptom", "format": "in vivo", "description": "as §1\nFor the AR model mice (22 mice) and solvent-administered group (10 mice) prepared in Example 1, the numbers of sneezes for a period of 10 minutes from 1 minute to 11 minutes after each of the first to tenth administrations of OVA or the solvent were counted. For the upper respiratory inflammation model mice (9 mice) and single-time solvent-administered group (6 mice) prepared in Example 1, the numbers of sneezes were counted hourly after the administration of LPS or the solvent (until 10 hours later)."}, "[5]": {"conditions": "10-time OVA-administered group vs 10-time solvent-administered group"}}}
{"molecule": "B1", "values": [{"measurement": "nasal cavity volume", "setting": "[1]; 5-time OVA-administered group, 24 hours after fifth administration", "result": "decreased"}, {"measurement": "nasal cavity volume", "setting": "[1]; 10-time OVA-administered group, compared with before the administration of OVA", "result": "significantly decreased"}, {"measurement": "serum ovalbumin-specific IgE", "setting": "[2]", "result": "23 ± 6.29", "unit": "ng/mL"}, {"measurement": "number of eosinophils infiltrated into the nasal turbinates", "setting": "[3]; 5-time OVA-administered group vs 10-time solvent-administered group", "result": "significant increase"}, {"measurement": "number of infiltrated eosinophils", "setting": "[3]; 5-time OVA-administered group vs LPS-administered group", "result": "significantly increased"}, {"measurement": "number of mucosal type mast cells infiltrated into the nasal turbinates", "setting": "[3]; 5-time OVA-administered group, solvent-administered groups and LPS-administered group compared", "result": "no significant difference"}, {"measurement": "number of infiltrated eosinophils", "setting": "[3]; 10-time OVA-administered group vs 5-time OVA-administered group", "result": "significantly increased"}, {"measurement": "number of eosinophils infiltrated into the nasal turbinates", "setting": "[3]; [5]", "result": "significant increase"}, {"measurement": "number of mucosal type mast cells infiltrated into the nasal turbinates", "setting": "[3]; [5]", "result": "significant increase"}, {"measurement": "number of neutrophils infiltrated into the nasal turbinate", "setting": "[3]; OVA-administered groups (5 and 10 times) and solvent-administered groups", "result": "no significant difference"}, {"measurement": "number of connective tissue type mast cells infiltrated into the nasal turbinates", "setting": "[3]; OVA-administered groups (5 and 10 times), solvent-administered groups and LPS-administered group compared", "result": "no significant difference"}, {"measurement": "frequency of sneezing", "setting": "[4]; allergic rhinitis model mice, from the first transnasal administration of OVA", "result": "observed to increase"}, {"measurement": "number of sneezes for 10 minutes after administration", "setting": "[4]; fifth administration of OVA, compared with solvent-administered group, maintained until tenth administration", "result": "significantly increased"}]}
